24 molecules from patent publication US20250376519A1 (JIANGSU HENGRUI PHARMACEUTICALS, published 2025) can be followed below.

B1: hu30L1H8 (antibody, human IgG1, kappa, V domains shown)
VH: EVRLVQFGAVVKKPGASVKVSCKASGYTFTDYYMNWVRQAPGQSLEWMGIINPYTGDTSYNQKFRGRVTLTVDKSSSTAYMELSSLRSEDTAVYYCARYHYGPHLEGYFDVWGQGTTVTVSS
VL: DIVMTQSPDSLAVSLGERATINCKASENVGYVSWYQQKPGQPPKLLIYGASNRYTGVPDRFSGSGSGTDFTLTISSLQAEDVAVYYCGQSYSYPLTFGQGTKLEIKR
B2: hu30L4H5 (antibody, human IgG1, kappa, V domains shown)
VH: B1 VH with F7S, V10E, S76A
VL: DIQMTQSPSSLSASVGDRVTITCKASENVGYVSWYQQKPGKAPKLLIYGASNRYTGVPSRFSGSGSGTDFTLTISSLQPEDFATYYCGQSYSYPLTFGQGTKLEIKR
B3: hu30L5H9 (antibody, human IgG1, kappa, V domains shown)
VH: B1 VH with F7S, V10E, M48I, V68A, S76A
VL: B2 VL with A42S, S59D, Q99S
B4: hu30L4H9 (antibody, human IgG1, kappa, V domains shown)
VH: B1 VH with F7S, V10E, M48I, V68A, S76A
VL: B2 VL
B5: hu30L4H11 (antibody, human IgG1, kappa, V domains shown)
VH: B1 VH with R87T
VL: B2 VL
B6: hu30L1H10 (antibody, human IgG1, kappa, V domains shown)
VH: B1 VH with F7S, V10E, A40S, P41H, S76A
VL: B1 VL
B7: hu30L4H8 (antibody, human IgG1, kappa, V domains shown)
VH: B1 VH
VL: B2 VL
B8: hu30L5H5 (antibody, human IgG1, kappa, V domains shown)
VH: B1 VH with F7S, V10E, S76A
VL: B2 VL with A42S, S59D, Q99S
B9: PL-4 (bispecific antibody)
chain 1: not shown
chain 2: DIVLTQSPASLAVSPGQRATITCRASESVSIHGTHLMHWYQQKPGQPPKLLIYAASKLESGVPARFSGSGSGTDFTLTINPVEAEDTANYYCQQSFEDPLTFGQGTKLEIKGGGGSGIPPKIECLPIDISIDEGKVLTVASCFTGEPTPEVTWSTGGRKIHSQEQGRFHIENTDDSTTLTIKDVQKQDGGLYTLTLRNEFGSDSATVNIHIRSI
chain 3: not shown
chain 4: not shown
B10: PL-8 (bispecific antibody)
chain 1: not shown
chain 2: B9 chain 2 with C142A
chain 3: not shown
chain 4: not shown
B11: PL-13 (bispecific antibody)
chain 1: not shown
chain 2: B9 chain 2 with G112R, G113T, G114V, G115A
chain 3: not shown
chain 4: not shown
B12: PL-17 (bispecific antibody)
chain 1: not shown
chain 2: B9 chain 2 with G112R, G113T, G114V, G115A, C142A
chain 3: not shown
chain 4: not shown
B13: PL-5 (bispecific antibody)
chain 1: not shown
chain 2: B9 chain 2 with C142A
chain 3: not shown
chain 4: not shown
B14: PL-18 (bispecific antibody)
chain 1: not shown
chain 2: B9 chain 2 with G112R, G113T, G114V, G115A, V136C, C142A
chain 3: not shown
chain 4: not shown
B15: PL-15 (bispecific antibody)
chain 1: not shown
chain 2: B9 chain 2 with G112R, G113T, G114V, G115A, V136C, C142A
chain 3: not shown
chain 4: not shown
B16: PL-7 (bispecific antibody)
chain 1: not shown
chain 2: B9 chain 2
chain 3: not shown
chain 4: not shown
B17: PL-6 (bispecific antibody)
chain 1: not shown
chain 2: B9 chain 2 with V136C, C142A
chain 3: not shown
chain 4: not shown
B18: PL-14 (bispecific antibody)
chain 1: not shown
chain 2: B9 chain 2 with G112R, G113T, G114V, G115A, C142A
chain 3: not shown
chain 4: not shown
B19: PL-16 (bispecific antibody)
chain 1: not shown
chain 2: B9 chain 2 with G112R, G113T, G114V, G115A
chain 3: not shown
chain 4: not shown
B20: PL-11 (bispecific antibody)
chain 1: not shown
chain 2: B9 chain 2 with G112R, G113T, G114V, G115A, C142A
chain 3: not shown
chain 4: not shown
B21: PL-10 (bispecific antibody)
chain 1: not shown
chain 2: B9 chain 2
chain 3: not shown
chain 4: not shown
B22: PL-9 (bispecific antibody)
chain 1: not shown
chain 2: B9 chain 2 with V136C, C142A
chain 3: not shown
chain 4: not shown
B23: PL-19 (bispecific antibody)
chain 1: not shown
chain 2: B9 chain 2 with G112R, G113T, G114V, G115A
chain 3: not shown
chain 4: not shown
B24: PL-12 (bispecific antibody)
chain 1: not shown
chain 2: B9 chain 2 with G112R, G113T, G114V, G115A, V136C, C142A
chain 3: not shown
chain 4: not shown

Positions count from the first letter of the chain named.

T3 sequence (Q9NZQ7 19-239 limits assumed): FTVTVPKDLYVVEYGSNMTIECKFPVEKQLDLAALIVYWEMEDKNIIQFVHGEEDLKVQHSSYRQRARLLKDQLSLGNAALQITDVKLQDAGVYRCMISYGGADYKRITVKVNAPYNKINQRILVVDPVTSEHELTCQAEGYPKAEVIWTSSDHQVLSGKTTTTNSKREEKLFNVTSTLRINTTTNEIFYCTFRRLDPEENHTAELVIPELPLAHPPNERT
T4 sequence (P16410 36-162 limits assumed): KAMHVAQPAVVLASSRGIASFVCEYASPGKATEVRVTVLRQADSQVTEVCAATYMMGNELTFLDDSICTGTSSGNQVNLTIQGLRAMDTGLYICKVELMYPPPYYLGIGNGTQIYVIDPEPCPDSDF

The target in one test is T1, human DLL3 on cells (human, UniProt Q9NYJ7 27-618).
T1 construct: Endogenous on H1184 and SHP77; Cell line is named under assay; also called H1184; DLL3/H82
T1 sequence: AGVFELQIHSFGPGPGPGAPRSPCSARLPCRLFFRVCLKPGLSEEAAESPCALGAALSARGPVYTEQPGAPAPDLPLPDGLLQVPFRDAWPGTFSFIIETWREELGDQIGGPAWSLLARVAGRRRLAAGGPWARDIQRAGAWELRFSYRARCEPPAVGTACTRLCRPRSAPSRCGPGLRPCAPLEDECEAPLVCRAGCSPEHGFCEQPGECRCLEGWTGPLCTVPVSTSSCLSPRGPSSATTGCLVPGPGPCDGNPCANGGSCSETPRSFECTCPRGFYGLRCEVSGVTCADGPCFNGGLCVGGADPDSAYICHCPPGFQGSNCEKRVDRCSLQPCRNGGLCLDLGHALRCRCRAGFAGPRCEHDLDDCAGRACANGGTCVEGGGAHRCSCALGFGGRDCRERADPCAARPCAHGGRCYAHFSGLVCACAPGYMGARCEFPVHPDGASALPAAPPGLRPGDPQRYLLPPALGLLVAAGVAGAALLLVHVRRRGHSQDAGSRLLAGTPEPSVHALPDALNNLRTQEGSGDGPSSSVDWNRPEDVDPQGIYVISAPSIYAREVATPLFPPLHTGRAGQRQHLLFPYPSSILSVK
The test is described as follows: flow cytometry, SHP77 cells. As for the experimental part:
The plates were centrifuged at 300 g for 5 min, and the supernatant was removed. Different concentrations of test antibodies were added at 100 μL/well. The plates were incubated in the dark in a refrigerator at 4° C. for 1 h. After 3 centrifugal washes at 300 g, working concentrations of APC anti-human IgG Fc (BioLegend, 410712) or PE F(ab′)2-goat anti-human IgG (invitrogen, H10104) were added. The plates were incubated in the dark in a refrigerator at 4° C. for 40 min. After 3 centrifugal washes at 300 g, the geometric mean fluorescence intensity was measured on an Invitrogen flow cytometer, and the EC50 values for the binding of the antibodies to DLL3-expressing cells were calculated.
For orientation: In flow cytometry, cells or beads pass a laser one at a time.
For orientation: EC50 means the concentration giving half of the maximal effect. A lower EC50 goes with greater potency. In turn, B1 yielded a half-maximal effective concentration (EC50) of 5.67 nM and an Emax of 1380.

With B2, the EC50 is 5.44 nM and the Emax came to 1460.

On to B3, for which the EC50 stood at 9.6 nM and the Emax was 1560.

In turn, B4 came in with an EC50 of 9.94 nM and an Emax of 1370.

As for B5, the EC50 worked out at 7.82 nM and the Emax amounted to 1520.

Turning to B6, it took 7.99 nM to reach a half-maximal effect (EC50) and the Emax was 1630.

In the case of B7, a half-maximal effect (EC50) was put at 5.3 nM and the Emax came out at 1420.

B8 came in with a 50% effective concentration (EC50) of 7.48 nM and an Emax of 1610.

Another test deals with T2, human DLL3 (ACRO, DLL3-H52H4) (human, UniProt Q9NYJ7 27-492).
T2 construct: Bought
T2 sequence: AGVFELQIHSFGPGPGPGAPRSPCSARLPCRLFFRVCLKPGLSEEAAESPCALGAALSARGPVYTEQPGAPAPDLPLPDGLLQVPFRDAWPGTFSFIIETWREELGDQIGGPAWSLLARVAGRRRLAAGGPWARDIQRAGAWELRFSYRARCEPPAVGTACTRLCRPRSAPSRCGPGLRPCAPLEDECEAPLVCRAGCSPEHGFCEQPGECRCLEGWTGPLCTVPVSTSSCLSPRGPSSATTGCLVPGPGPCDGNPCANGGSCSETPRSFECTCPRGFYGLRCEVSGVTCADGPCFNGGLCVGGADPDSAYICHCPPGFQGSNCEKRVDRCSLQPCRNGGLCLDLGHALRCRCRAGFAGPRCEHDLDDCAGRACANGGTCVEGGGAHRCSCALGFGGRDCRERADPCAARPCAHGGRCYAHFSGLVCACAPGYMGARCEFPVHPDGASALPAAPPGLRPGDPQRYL
The test is described as follows: SPR Biacore 8K, Ab captured on Protein A. In outline:
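Antibodies captured on a Protein A chip for 18 s; DLL3 or CD3D&3E antigen flowed 180 s, then 600 s dissociation, with real-time detection. Regeneration used 10 mM glycine-HCl pH 1.5 between cycles. Kinetics were obtained by 1:1 model fitting.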
(In general: SPR reads the build-up and loss of mass on a sensor chip optically.)
The term Kd denotes a measure of binding affinity in units of concentration. By koff is commonly meant the first-order rate constant of dissociation. High values mean a short-lived complex, low ones a long-lived complex. Broadly, the kon is the second-order rate constant of association. High values mean faster complex formation, low ones slower complex formation. In turn, B1 gave a Kd of 2.57 nM, a dissociation rate constant (koff) of 0.00109 s⁻¹ and a kon of 425000 M⁻¹ s⁻¹.

Turning to B2, the dissociation constant Kd was 2.09 nM, the off-rate constant (koff) amounted to 0.00092 s⁻¹ and the on-rate constant (kon) was 440000 M⁻¹ s⁻¹.

The molecule B3 returned a Kd of 2.48 nM, an off-rate constant (koff) of 0.000989 s⁻¹ and a kon of 399000 M⁻¹ s⁻¹.

Turning to B4, binding was characterised by a dissociation constant (Kd) of 2.57 nM, the off-rate constant (koff) came to 0.00101 s⁻¹ and the on-rate (kon) was found to be 392000 M⁻¹ s⁻¹.

With B5, binding was put at a Kd of 2.84 nM, the koff is 0.00113 s⁻¹ and the association rate constant (kon) worked out at 398000 M⁻¹ s⁻¹.

The molecule B6 registered a dissociation constant (Kd) of 2.19 nM, an off-rate constant (koff) of 0.000964 s⁻¹ and a kon of 440000 M⁻¹ s⁻¹.

In the case of B7, the dissociation constant (Kd) stood at 2.74 nM, the koff came out at 0.000942 s⁻¹ and the association rate constant (kon) stood at 343000 M⁻¹ s⁻¹.

Consider B8, for which the Kd was found to be 1.98 nM, the koff turned out to be 0.000882 s⁻¹ and the association rate constant (kon) was 446000 M⁻¹ s⁻¹.

The next test has as its target T3, hPDL1 (human, UniProt Q9NZQ7 19-239).
T3 construct: bought
Kind of test: ELISA.
As to B9, a half-maximal effect (EC50) was put at 0.7 nM. This lies in the sub-nanomolar range.

Consider B10, for which the response was half-maximal at 1.4 nM (EC50).

As for B11, the 50% effective concentration (EC50) is 0.5 nM.

B12: the concentration for a half-maximal effect (EC50) is 1.4 nM.

Turning to B13, the EC50 worked out at 0.7 nM.

In turn, B14 returned an EC50 of 1.6 nM. Against the preceding molecule, the EC50 is about 2.3-fold higher.

B15 displayed an EC50 of 1.4 nM.

B16 registered a half-maximal effective concentration (EC50) of 0.5 nM. Compared with the last molecule, the EC50 is about 2.8-fold lower.

For B17, the EC50 was 0.8 nM.

The molecule B18 came in with a half-maximal effective concentration (EC50) of 1.3 nM.

On to B19, for which the concentration for a half-maximal effect (EC50) was 1.7 nM. The EC50 values of the last two molecules are within 1.5-fold of each other.

In the case of B20, the EC50 stood at 0.6 nM.

On to B21, for which the EC50 came out at 0.6 nM.

Take B22: the 50% effective concentration (EC50) worked out at 0.6 nM.

For the molecule B23, the EC50 amounted to 1.6 nM.

Consider B24, for which the EC50 turned out to be 0.5 nM. Compared with the last molecule, the EC50 is about 3.2-fold lower.

The next test concerns the target T4, hCTLA4 (human, UniProt P16410 36-162, limits assumed).
T4 construct: bought
The test is described as follows: ELISA. In general terms: ELISA stands for enzyme-linked immunosorbent assay.
Take B9: the concentration giving a half-maximal response (EC50) amounted to 6.5 nM.

As for B10, a half-maximal response (EC50) required 14.5 nM.

In the case of B11, the EC50 was determined as 4.4 nM.

As for B12, the EC50 was found to be 6.2 nM. This EC50 and that of the molecule before are within 1.5-fold of each other.

In the case of B13, the EC50 turned out to be 6.7 nM. The EC50 values of the last two molecules are within 1.5-fold of each other.

For B14, the EC50 stood at 6.7 nM. In other words, the single-digit nanomolar range.

On to B15, for which the 50% effective concentration (EC50) came out at 3.2 nM.

Molecule B16 gave a concentration giving a half-maximal response (EC50) of 7.3 nM. Against the preceding molecule, the EC50 is about 2.3-fold higher.

The molecule B17 gave an EC50 of 5.3 nM.

Regarding B18, the concentration for a half-maximal effect (EC50) was 6 nM.

Consider B19, for which the EC50 was determined as 34.9 nM.

Take B20: the concentration giving a half-maximal response (EC50) was determined as 5.6 nM.

As to B21, the EC50 is 6.9 nM.

B22 returned an EC50 of 5.5 nM.

B23 returned a half-maximal effective concentration (EC50) of 6.5 nM. This EC50 and that of the molecule before are within 1.5-fold of each other.

Consider B24, for which the EC50 was found to be 8 nM. The EC50 values of the last two molecules are within 1.5-fold of each other.
